Reference: US20250027068

What follows are proteins tested against pooled human IgG (human IgG1,2,3 and 4).

Protein | Enzyme Activity Endpoint Assay (purified): Fab′2 | Enzyme Activity Endpoint Assay (purified): Fc | Enzyme Activity Endpoint Assay (purified): IgG | Enzyme Activity Endpoint Assay (purified): scIgG | Enzyme activity endpoint: Fab′2 | Enzyme activity endpoint: Fc | Enzyme activity endpoint: IgG | Enzyme activity endpoint: scIgG
PRT-499 (protein) MVTSVWTKGVTPPADFRKIVDGNIAYYHAPYVANQGWYDITKTFNGKDDLLCGAATAGNMLHWWFDQNKEYIEAYLKKHPEKQKIMFGDQELLDVRKAINTKGSQKNSELFNYFRDKAFPNLSARRLGVMPDLVLDMFINGYYLNVTKTQTTDVNRTYQEKDKRGGIFDAVFTRGDQSKLLTSRHDLKNKGLKEISDLIKQELTEGKALGLSHTYANVRINHVINLWGADFDSDGNLKAIYVTDSDSNASIGMKKYFVGVNSAGKVAISAKEIKEDNIGAQVLGLFTLSTGQDIWNQTNLEHHHHHH | 637 ng/µL | 365 ng/µL | 436 ng/µL | 45 ng/µL | – | – | – | –
PRT-484 (protein) MVTSVWTKGVTPPTDFRKIVDGNIAYYHAPYKAGQGWYDITKAFDGGDNLLCGAATAGNMLHWWFDQNKDQIEAYLKEHPEKQKIIFNNQELFDLKAAIDTKDDQTNSELFNYFKEKAFPYLSTKHLGVFPDHVLDMFINGYRLSLTNHGPTPVKEGSKDKRGGIFDAVFTRGVQSKLLTSRHDLKNKTLKEISDLIKQELTEGKALALSHTYANVRINHVINLWGADFDSNGNLEAIYVTDSDTNASIGMKKYFVGVNSAGKVAISAKEIEDDNIGAQVLGLFTLSTGQDIWNQTNLEHHHHHH | 143 ng/µL | 277 ng/µL | 173 ng/µL | 973 ng/µL | – | – | – | –
PRT-488 (protein) MVTSVWTKGVTPPTDFRKIVDGNIAYYHAPYKAGQGWYDITKAFDGGDNLLCGAATAGNMLHWWFDQNKDQIERYLKEHPEKQKIIFNNQELFDLKAAIDTKDSQTNSELFNYFKEKAFPYLSTKHLGVFPDHVLDMFINGYRLSLTNHGPTPVKEGSKDKRGGIFDAVFTRGVQSKLLTSRHDLKNKTLKEISDLIKQELTEGKALGLSHTYANVRINHVINLWGADFDSEGNLKAIYVTDSDTNASIGMKKYFVGVNSAGKVAISAKEIKEDNIGAQVLGLFTLSTGQDIWNQTNLEHHHHHH | 134 ng/µL | 246 ng/µL | 216 ng/µL | 803 ng/µL | – | – | – | –
PRT-617 (protein) MQITSVWTKGVTPLTPEQFRYNNEDVIHAPYLPHQGWYDITKAFDGGDNLLCGAATAGNMLHWWFDQNKTEIEAYLSKYPEKQKIIFNNQELFDLRAAINSKDSQTNSQLFNYFRDKAFPNLSARQLGVMPDLVLDMFINGYYLNVFKTQSTDVNRPYQDPDKRGGIFDDVFKEGDQTTLLTARHDLKNGGLNDISTIIKQELQSGRALALSHTYANVSISHVINLWGADFNAEGNLEAIYVTDSDANQSIGMKKYKVGINAHGHVAISAKKIEGENIGAQVLGLFTLSSGKEIWQKLSLEHHHHHH | – | – | – | – | 630 ng/µL | 34 ng/µL | 798 ng/µL | 25 ng/µL
PRT-505 (protein) MVTSVWTKGVTPPTDFIKGEDVFHAPYKAGQGWYDITKAFDGGDDLLCGAATAGNMLHWWFDQNKEYIEAYLKKHPEKQKIMFGDQELLDVRKAINTKGSQKNSELFNYFRDKAFPNLSARRLGVMPDLVLDMFINGYYLNVTKTQTTDVNRQEQEKDKRGGIFDAVFGRGDQTKLLTSRHDLKNKGLKEISDLIKQELTEGKALGLSHTYANVRINHVINLWGADFDSDGNLKAIYVTDSDSNASIGMKKYFVGVNSAGKVAISAKEIKEDNIGAQVLGLFTLSTGQKIWNKTNLEHHHHHH | 37 ng/µL | 148 ng/µL | 609 ng/µL | 752 ng/µL | – | – | – | –
PRT-447 (protein) MVTSVWTKGVTPPTDFIKGEDVFHAPYKAGQGWYDITKAFDGGDDLLCGAATAGNMLHWWFDQNKDQIEAYLKEHPEKQKINFNGEQMFDVKEAIDTKDDQTNSELFNYFKEKAFPYLSTKHLGVFPDHVLDMFINGYRLSLTNHGPTPVKEGSKDPRGGIFDAVFTRGDQSKLLTSRHDFKEKTLKEISDLIKQELTEGKALALSHTYANVRINHVINLWGADFDSNGNLEAIYVTDSDSNASIGMKKYFVGVNSAGKVAISAKEIEDDNIGAQVLGLFTLSTGQDIWNQTNLEHHHHHH | 376 ng/µL | 255 ng/µL | 445 ng/µL | 0 ng/µL | – | – | – | –
PRT-459 (protein) MVTSVWTKGVTPPTDFIKGEDVFHAPYKAGQGWYDITKAFDGGDDLLCGAATAGNMLHWWFDQNKDQIERYLKEHPEKQKINFNGEQMFDVKEAIDTKDSQTNSELFNYFKEKAFPYLSTKHLGVFPDHVLDMFINGYRLSLTNHGPTPVKEGSKDPRGGIFDAVFTRGDQSKLLTSRHDFKEKTLKEISDLIKQELTEGKALGLSHTYANVRINHVINLWGADFDSEGNLKAIYVTDSDSNASIGMKKYFVGVNSAGKVAISAKEIKEDNIGAQVLGLFTLSTGQDIWNQTNLEHHHHHH | 137 ng/µL | 193 ng/µL | 373 ng/µL | 415 ng/µL | – | – | – | –
PRT-473 (protein) MVTSVWTKGVTPPTDFRKIVDGNIAYYHAPYKAGQGWYDITKTFNGKDDLLCGAATAGNMLHWWFDQNKEQIENYLKKHPEKQKINFNGEQMFDVKEAIDTKDSQLDSKLFEYFKEKAFPYLSTKHLGVFPDHVIDMFINGYRLSLTNHGPTPVKRGSKDPRGGIFDAVFTRGDQSKLLTNRHDFKEKTLKEISDLIKQELTEGKALGISHTYANVRINHVINLWGADFDAEGNLEAIYVTDSDSNASIGMKKYFVGVNSNGKVAISAKEIEEDNIGAQVLGLFTLSTGQDIWNQTNLEHHHHHH | 1340 ng/µL | 384 ng/µL | 59 ng/µL | 0 ng/µL | – | – | – | –
PRT-507 (protein) MITSVWTKGVTPPTDFIKGEDVFHAPYKAGQGWYDITKAFDGGDDLLCGAATAGNMLHWWFDQNKEEIEAYLKKHPEKQKIMFGDQELLDVRKVINTKDSQTNSALFNYFKDKAFPNLSARRLGVMPDLVLDMFINGYYLNVYKTQTTDVNRTYQTKDRRGGIFDAVFTRGDQSKLLTERHDFKEKTLKEISDLIKQELTEGKALGLSHTYANVRINHVINLWGADFDSNGNLEAIYVTDSDSNASIGMKKYFVGVNSAGKVAISAKEIKEDNIGAQVLGLFTLSTGQDIWNQTNLEHHHHHH | 927 ng/µL | 355 ng/µL | 112 ng/µL | 0 ng/µL | – | – | – | –
PRT-683 (protein) MQITSVWTKGVTPLTPEQFRYNNEDVIHAPYLAHQGWYDITKAFNGKDNLLCGAATAGNMLHWWFDQNKEEIEAYLKKHPEKQKIIFNNQELFDLRKAINTKDSQTNSQLFNYFRDKAFPNLSARQLGVMPDLVLDMFINGYYLNVFKTQSTDVNRPYQDKDKRGGIFDHVFTRGDQTTLLTARHDLKNKTLNDISQIIKQELQEGKALALSHTYANVSISHVINLWGADFNAEGNLEAIYVTDSDANASIGMKKYFVGKNAHGHVAISAKKIEGENIGAQVLGLFTLSSGKEIWQKLSLEHHHHHH | – | – | – | – | 1100 ng/µL | 570 ng/µL | 0 ng/µL | 0 ng/µL
PRT-524 (protein) MITSVWTKGVTPPTDFRKIVDGNIAYYHAPYKAGQGWYDITKAFDGGDNLLCGAATAGNMLHWWFDQNKEEIEAYLKKHPEKQKIIFNNQELFDLKAVINTKDSQTNSALFNYFKDKAFPNLSARRLGVFPDLVLDMFINGYYLNVYKTQTTDVNRTYQTKDRRGGIFDAVFTRGVQSKLLTERHDLKNKTLKEISDLIKQELTEGKALGLSHTYANVRINHVINLWGADFDSNGNLEAIYVTDSDTNASIGMKKYFVGVNSAGKVAISAKEIKEDNIGAQVLGLFTLSTGQDIWNQTNLEHHHHHH | 474 ng/µL | 285 ng/µL | 676 ng/µL | 0 ng/µL | – | – | – | –
PRT-689 (protein) MQITSVWTKGVTPLTMDQFTNNNEDVIHAPYKPGQGWYDITKTFDGKDNLLCGAATAGNMLHWWFDQNKEEIENYLKKHPEKQKIIFNNQKLFDLRKAINTKDSQTNSALFNYFRDKAFPNLSARQLGVMPDLVLDMFINGYYLNVFKTQSTDVNREYQTKDKRGGIFDDVFGRGDQTTLLTARHDLKNGGLNDISQIIKQELSSGKALALSHTYANVSISHVINLWGADFNEEGNLEAIYVTDSDANASIGMKKYYVGKNAHGKVAISAKKIEGENIGAQVLGLFTLSSGKEIWQKLSLEHHHHHH | 335 ng/µL | 248 ng/µL | 376 ng/µL | 174 ng/µL | – | – | – | –
PRT-472 (protein) MVTSVWTKGVTPPTDFIYGEDVLHAPYKAGQGWYDITKTFNGKDDLLCGAATAGNMLHWWFDQNKEQIENYLKKHPEKQKINFNGEQMFDVKEAIDTKDSQLDSKLFEYFKEKAFPYLSTKHLGVFPDHVIDMFINGYRLSLTNHGPTPVKRGSKDPRGGIFDAVFTRGDQSKLLTNRHDLKNKTLKEISDLIKQELTEGKALGISHTYANVRINHVINLWGADFDAEGNLEAIYVTDSDSNASIGMKKYFVGVNSNGKVAISAKEIEEDNIGAQVLGLFTLSTGQDIWNQTNLEHHHHHH | 1130 ng/µL | 386 ng/µL | 0 ng/µL | 0 ng/µL | – | – | – | –
PRT-636 (protein) MQITSVWTKGVTPLTMDQFRNYNYDVIHAPYKPGQGWYDITKAFDGKDNLLCGAATAGNMLHWWFDQNKTEIEAYLSKHPEKQKIIFNNQELFDLKAAIDTKDSQTNSQLFNYFRDKAFPNLSARQLGVMPDLVLDMFINGYYLNVFKTQSTDVNRPYQDKDKRGGIFDAVFTRGDQTTLLTARHDLKNKGLNDISTIIKQELTEGKALALSHTYANVSISHVINLWGADFNAEGNLEAIYVTDSDANASIGMKKYFVGINAHGHVAISAKKIEGENIGAQVLGLFTLSSGKDIWQKLSLEHHHHHH | 12 ng/µL | 17 ng/µL | 0 ng/µL | 0 ng/µL | – | – | – | –
